Results on five molecules are retold here after patent US8772236B2, “Truncated cystine-knot proteins” (Pepscan Systems B.V., priority 2009, dated 2014).

Where “and” joins values, the source holds several entries; their conditions need not be identical. Equal values may be shown once.

Data set [1] deals with T1, ratVEGF1-165 homodimer (recombinant full-length ratVEGF) (Rattus norvegicus, UniProt P16612).
T1 construct: humanVEGF), and D) ratVEGF1-165 homodimer (recombinant full-length ratVEGF); For
T1 sequence (P16612 27-165 isoform P16612-2 limits assumed): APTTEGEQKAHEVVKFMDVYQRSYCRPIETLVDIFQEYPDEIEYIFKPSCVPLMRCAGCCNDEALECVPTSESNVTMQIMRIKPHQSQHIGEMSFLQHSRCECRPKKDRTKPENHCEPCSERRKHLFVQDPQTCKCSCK
In words: Binding of rat-antisera in ELISA to ratVEGF1-165 homodimer. The following applies: coat ratVEGF1-165 homodimer; Avastin. Background: An ELISA detects its analyte on a solid surface through an enzyme-linked reagent.
Protocol: Therefore, polystyrene 96-well plates (Greiner, Germany) were treated with 100 μL/well of 0.2% glutaric dialdehyde in phosphate-buffer (0.1 M, pH=5) for four hours at room temperature while shaking, following by washing (3×10 minutes) with phosphate-buffer (0.1 M, pH=8). Then, the wells were coated with 100 μL/well of a 1 μg/mL solution of oxid-humVEGF26-104/humVEGF1-165 in phosphate-buffer (0.1 M, pH=8) for three hours at 37° C., followed by overnight standing at room temperature. After washing with 1% TWEEN®-80 (3×), the plates were incubated with the antibody at various different dilutions in horse serum (4% in PBS/1% TWEEN®-80/3% NaCl), starting with 1/10 dilution in the first well and three-fold dilution steps in subsequent wells. Incubation was performed for one hour at 37° C., followed by washing with 1% TWEEN®-80 (3×). Then, the plates were incubated with 100 μL/well of peroxidase-labeled Goat-anti-rat serum (1/1000 dilution in 4% horse serum, see above) for one hour at 25° C., followed by washing with 1% TWEEN®-80 (4×). […] OD405 nm-values were measured after 45 minutes standing at room temperature in the dark.
Titers were calculated by determining the serum dilution for which OD405 nm is equal to 4×OD405 nm that of a buffer solution (see “ELISA-binding studies, example 1B”). […]

In another data set the test system is Avastin™. Briefly: Competition ELISA: inhibition of Avastin-binding to surface-immobilized humVEGF1-165 by peptides.
Another data set deals with T2, full-length TGF-B2 (Homo sapiens, UniProt P61812).
T2 sequence (P61812 303-414 limits assumed): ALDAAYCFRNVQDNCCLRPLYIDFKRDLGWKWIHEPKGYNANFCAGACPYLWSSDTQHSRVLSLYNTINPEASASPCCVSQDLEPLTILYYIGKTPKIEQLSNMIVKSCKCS
In words: ELISA titers of rat antisera to full-length TGF-B2 after immunization with the chimeric peptide. It is filed as binding. From the text: (§1) FIG. 21. (Panel A) Antibody titers in ELISA for 9wpv-rat sera (1 and 2+pre-immune sera) that were elicited via immunization with oxid-humTGFB215-111/Δ49-77-humVEGF62-67. Titers were defined as the −10 log [conc] at which the OD in ELISA is equal to 4× the background signal. (Panel B) Antibody binding in ELISA of 9wpv-rat sera to surface-immobilized 1) humTGFB2trunc-1 (with VEGF b2-loop), 2) humTGFB2trunc-2 (with sequence PGGSPA replacing native humTGF-B2 b2-loop), and 3) humVEGFtrunc.
(§2) Each animal received four inoculations (0, 2, 4, and 7.5 wks) with 2×450+2×130 microgram of oxid-humTGFB215-111/Δ49-77-humVEGF62-67.

Data set [2] deals with humTGFB2trunc-1, humTGFB2trunc-2, humVEGFtrunc. In words: ELISA binding of 9wpv-rat sera to humTGFB2trunc-1, humTGFB2trunc-2 and humVEGFtrunc. Also on record: species or system human.
From the text: as §1, §2

Another data set has as its target T3, humVEGF1-165 (Homo sapiens, UniProt P15692).
T3 sequence (P15692 27-191 isoform P15692-4 limits assumed): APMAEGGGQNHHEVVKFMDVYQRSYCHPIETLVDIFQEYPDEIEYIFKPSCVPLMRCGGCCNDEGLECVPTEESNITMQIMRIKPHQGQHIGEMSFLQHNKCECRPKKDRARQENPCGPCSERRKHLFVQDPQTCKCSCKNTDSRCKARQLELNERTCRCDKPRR
Briefly: ELISA titer determination of antisera on surface-immobilized humVEGF1-165 after immunization with oxid-humVEGF26-104. The class given is binding. The following applies: female Wistar rats and female Balb/C mice.

For data set [3], the system named is BaF3 cells (murine pre-B lymphocytes stable expressing human humVEGF-Receptor 2). In words: BaF3-cell proliferation in the presence of oxid-humVEGF26-104. The class given is cell-based. As for the experimental part: FIG. 8. Proliferation data from BaF3/cell assay with humVEGF26-104 at various concentration (0.01-20 ng/mL), either in the absence and presence of humVEGF1-165. Level of proliferation observed at humVEGF1-165=1.2 ng/mL was set by default to 100%, other proliferation levels were expressed as % of default.
The cells that are used in the assay are murine pre-B lymphocytes stable expressing human (h) humVEGF-Receptor 2 (Makinen et al., 2001). These recombinant cells survive/proliferate only in the presence of IL-3 (natural cytokine required for the survival of the parental cells) or humVEGF. […]
Two days later, cell proliferation was measured by adding WST-1 (Roche #1644807). […]
The WST-1 assay is based on the measurement of the mitochondrial succinate dehydrogenase activity. […] A tetrazolium salt (WST-1) is used as substrate since it generates a soluble dark metabolic (formazon) through the action of the enzyme, which can then be quantified by measuring the absorbance (450 nm) in an ELISA reader. The higher the absorbance measured in the assay, the stronger the proliferation. Absorbance is positively correlated with proliferation. […]
In order to check whether oxid-humVEGF26-104, the truncated form of humVEGF1-165, is also able to induce BaF3-cell proliferation, we measured cell proliferation in the presence of varying amounts of oxid-humVEGF26-104 (0.01-20 ng/mL). […]

Data set [4] is described as follows: Immunization study in Wistar rats with oxid-ratVEGF26-104 and oxid-humVEGF26-104. As to conditions: 250 micrograms, CoVaccine, days 0, 14, 28, 42; bled day 56. The class given is in vivo. From the text:
This example describes the results of an immunization study in male Whistar rats with both oxid-hum-VEGF26-104 and oxid-ratVEGF26-104 with an intact cystine-knot fold (oxid-form). […] The use of truncated VEGF as described in this patent can thus be used to bypass immune tolerance to “self proteins,” like, for example, the full-length homodimeric VEGF protein in this particular case.
A total of four Wistar rats (2×2) were immunized on day 0 with 250 micrograms each of either oxid-ratVEGF26-104 (two rats) or oxid-humVEGF26-104 (two rats) using CoVaccine as adjuvant, followed by booster inoculations at day 14, 28, and 42. The rats were finally bled at day 56, and the sera were analyzed for antibody titers against ratVEGF1-165, humVEGF1-165, oxid-ratVEGF26-104, and oxid-humVEGF26-104.

With “Avastin: humanized anti-humVEGF monoclonal antibody (Genentech)”, the “titer endblood (mAb, as concentration)” value in data set [1] is given as less than 1000 ng/mL.

On to “(cyclic) peptide-mimic derived from the beta3-loop of humVEGF: backbone-cyclized peptide covering only the β5-turn-β6 loop of humVEGF (humVEGF74-98) (SNITMQIMRIKPHQGQHIGEMSFLQ; cyclised or stapled) [reference compound]”, for which the “fold less active in binding to Avastin™” value with Avastin™ is > 10,000 fold.

B1: oxid-humTGFB215-111/Δ49-77-humVEGF62-67: chimeric truncated human TGFB2 residues 15-111 with beta2-loop replaced by humVEGF 62-67 (SEQ ID NO:35) (peptide)
chain: CALRPLYIDFKRDLGWKWIHEPKGYNANFCAGACNDEGLECVSQDLEPLTILYYIGKTPKIEQLSNMIVKSCKC
modifications: oxidized; humTGFB2-humVEGF
For the molecule B1, the “titer in ELISA to full-length TGF-B2, pre-immune sera” value in the data set with full-length TGF-B2 (pre-immune sera of the two rats) is reported as not above 2.1. The “cross-reactivity of elicited antibodies with native humTGF-B2” value with full-length TGF-B2 (rat antisera) was “fully cross-reactive with the native protein humTGF-B2”. Besides, the “titer in ELISA to full-length TGF-B2, nine weeks post vaccination antisera” value with full-length TGF-B2 (two rats, inoculations at 0, 2, 4, 7.5 wks, titer = -10log[conc] at which OD = 4x background) was 3.8 and 4.1. For the same molecule, the “specificity of antibodies in the sera (TGFB2-part versus VEGF-part)” value in data set [2] is given as “majority of antibodies in the sera were directed towards the TGFB2-part of the peptide”.

B2: oxid-humVEGF26-104: truncated human VEGF residues 26-104, N-acetylated, C-amidated, cystine-knot folded (SEQ ID NO:27) (peptide)
chain: CHPIETLVDIFQEYPDEIEYIFKPSAVPLMRCGGACNDEGLECVPTEESNITMQIMRIKPHQGQHIGEMSFLQHNKCEC
modifications: N-acetyl, C-amide, cystine-knot folded; VEGF26-104
For the molecule B2, in the data set on Avastin™ (10 ng/mL Avastin), the “difference in affinity (as compared to humVEGF1-165) to Avastin™” value is recorded as “less than five”. Further, in the data set with humVEGF1-165, the “antibody generation via immunization (not conjugated to a carrier protein)” value was “high levels of antibodies were successfully generated”. For the same molecule, the “effect on the proliferating ability of humVEGF1-165” value in data set [3] (0.01-20 ng/mL in the presence of humVEGF1-165=1.2 ng/mL) is recorded as “nor any affect on the proliferating ability of humVEGF1-165”. In data set [3] (0.01-20 ng/mL, absence of humVEGF1-165), the “activity in BaF3-cell proliferation” value is recorded as “no activity”.

B3: oxid-ratVEGF26-104: truncated rat VEGF residues 26-104, acetylated and amidated, cystine-knot folded (SEQ ID NO:30) (peptide)
chain: CRPIETLVDIFQEYPDEIEYIFKPSAVPLMRCAGACNDEALECVPTSESNVTMQIMRIKPHQSQHIGEMSFLQHSRCEC
modifications: N-acetyl, C-amide, cystine-knot folded; ratVEGF26-104
With B3, the “immunogenicity in rats compared to oxid-humVEGF26-104” value in data set [4] is “equally immunogenic and potent as compared to oxid-humVEGF26-104”.
